Experimental data taken from patent US20260078341A1 (published 2026).
Where a chain is given by its changes, count along the chain named.

B1: P2-4BBZ CAR (other)
chain: DYKDDDDKEVQLVQSGAEVKKPGSSVKVSCKASGGTFSSYAISWVRQAPGQGLEWMGGIIPIFGTANYAQKFQGRVTITADESTSTAYMELSSLRSEDTAVYYCAREEGPYCSSTSCYAAFDIWGQGTLVTVSSGGGGSGGGGSGGGGSQSVLTQDPAASVALGQTVKITCQGDSLRSYFASWYQQKPGQAPTLVMYARNDRPAGVPDRFSGSKSGTSASLAISGLQSEDEADYYCAAWDDSLNGYLFGAGTKLTVLTTTPAPRPPTPAPTIASQPLSLRPEACRPAAGGAVHTRGLDFACDIYIWAPLAGTCGVLLLSLVITLYCKRGRKKLLYIFKQPFMRPVQTTQEEDGCSCRFPEEEEGGCELRVKFSRSADAPAYKQGQNQLYNELNLGRREEYDVLDKRRGRDPEMGGKPRRKNPQEGLYNELQKDKMAEAYSEIGMKGERRRGKGHDGLYQGLSTATKDTYDALHMQALPPR
B2: C10-BBZ CAR (other)
chain: B1 chain with A119G, A159V
B3: P3-5BBZ CAR (other)
chain: B1 chain with M56V, T77K, T84A, A119G, A159V, F180L, M196T

Molecular target: T1, EGFR on cells (tumor lines, primary cell lines, K562 cells electroporated with EGFR mRNA, A431) (UniProt P00533 25-1210)
Assay: not stated; affinity of the scFv

For B1, which Kd is on record?
The Kd was 15.4 nM.

For B2, which Kd is on record?
Its Kd is 264 nM.

How did the Kd turn out when B3 was run?
The Kd was 88.2 nM.

Molecular target: T1, EGFR on cells (tumor lines, primary …)
Assay: not stated; affinity of the scFv
Remark: another data set of the same source

Which Kd does the source give for B1 here?
Its Kd is 15.4 nM.

With B2 as the binder, how does the Kd read?
The Kd was 264 nM.

Which Kd does the source give for B3 here?
The Kd was 88.2 nM.
